In data set [1] the target is HMGB1ΔC (Homo sapiens, UniProt P09429 1-185, del186-215). Kind of data set: fluorescence anisotropy; 50 nM DNA; sigmoidal dose-response fit; 10 mM Tris-HCl pH 7.5, 50 mM NaCl, 0.5 mM DTT, 0.1 mM EDTA, 5% glycerol; 25 °C (anisotropy). Particulars: protein: recombinant; tags: N-terminal 6xHis with TEV site, not removed; label: 5'-6-FAM on complementary strand; blunt.
In data set [2] the target is HMGB1 (Homo sapiens, UniProt P09429 1-215). Described as above. Particulars: protein: recombinant; tags: N-terminal 6xHis with TEV site, not removed; label: 5'-6-FAM on complementary strand; blunt.
HMGB1, sequence (P09429 whole entry): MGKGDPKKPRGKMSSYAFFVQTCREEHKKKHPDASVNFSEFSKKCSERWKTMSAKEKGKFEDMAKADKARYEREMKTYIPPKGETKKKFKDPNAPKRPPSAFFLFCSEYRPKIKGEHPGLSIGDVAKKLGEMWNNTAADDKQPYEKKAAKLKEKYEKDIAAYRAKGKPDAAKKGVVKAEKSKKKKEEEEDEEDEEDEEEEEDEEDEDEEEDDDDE

HMGB1ΔC, sequence (P09429 1-185, stated change not applied): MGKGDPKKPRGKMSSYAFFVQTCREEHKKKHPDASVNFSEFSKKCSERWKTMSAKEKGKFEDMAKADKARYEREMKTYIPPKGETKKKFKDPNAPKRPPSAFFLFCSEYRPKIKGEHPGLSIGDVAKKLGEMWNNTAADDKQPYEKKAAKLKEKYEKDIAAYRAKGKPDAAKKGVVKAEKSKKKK

B1: 20-bp dsDNA, 6-FAM (dsDNA)
DNA 1: TACTGTATGAGCATACAGTA
DNA 2: TACTGTATGCTCATACAGTA
Regarding B1, the Kd was determined as 0.072 ± 0.004 µM in data set [1] and 0.088 ± 0.005 µM in data set [2].

These data come from PMC3821859, “Role of the Acidic Tail of High Mobility Group Protein B1 (HMGB1) in Protein Stability and DNA Bending”.
